Laboratory results taken from patent US20160138027A1 (Stanford University, published 2016).

What was measured:
LRS = target: T1, LRS (human, UniProt Q9P2J5 1-1176); assay: FLAG co-immunoprecipitation from HEK293T lysates, western blot
T1 construct: Endogenous protein probed in the co-immunoprecipitate; also called Leucyl tRNA synthetase

Rictor = target: T2, Rictor (human, UniProt Q6R327 1-1708); assay: FLAG co-immunoprecipitation from cross-linked HEK293T lysates, western blot (FIG. 6C)
T2 construct: Endogenous protein probed in the co-immunoprecipitate
Protocol: (§1) HEK293T cells were transfected with either MORTOR-3×FLAG or FLAG alone for 22 or 42 hours later. Cells were then starved of amino acids and serum for 4 hours and re-stimulated with amino acids for 5 minutes or left untreated. Cells were cross-linked and harvested and FLAG immunoprecipitation was used to test for interactions with endogenous proteins. […] HEK293T cells were transfected with either MORTOR-3×FLAG, MORTOR-1×FLAG (CMV), or FLAG only and treated as in FIG. 6A.
(§2) One day before transfection, 2,000,000 HEK293T cells were plated in 10 cm culture dishes. The cells were transfected with 2 μg of cDNA expression vectors using Lipofectamine 2000 (Life Technologies). Four hours after transfection, the cells were washed and incubated in DMEM with 10% FBS without antibiotics for 18 hours. When amino acid sensitivity was investigated, cells were transfected for 18 or 38 hours followed by 4 hours of amino acid starvation. The cells were then stimulated with amino acid for 7 minutes. The cells were incubated in Triton X-100 lysis buffer (1% Triton X-100, 40 mM HEPES pH 7.4, 2 mM EDTA, 200 mM NaCl, phosSTOP and protease inhibitor cocktail (Roche)) for 1 hour, followed by sonication at 4° C. For in-cell crosslinking experiments, DSP was used as previously described (Sancak, Y., et al. (2008) “The Rag GTPases Bind Raptor and Mediate Amino Acid Signaling to MTORC1,” Science, 320:1496-1501) prior to cell lysis. The lysates were centrifuged at 20,000×g for 30 minutes. For immunoprecipitation, primary antibodies were cross-linked to Protein G beads (Life technologies) using DMP (Thermo scientific). For anti-FLAG-immunoprecipitation, the FLAG-M2 affinity gel (Life technologies) was used. The cleared lysates were incubated with the beads at 4° C. for 2 hours or overnight. The beads were washed five times with ice-cold lysis buffer. Immunoprecipitated proteins were denatured in the SDS sample buffer and separated by SDS-PAGE. The intensity of bands were quantified using ImageJ (NIH).

p62 = target: T3, p62 (human, UniProt Q13501 2-440); assay: as above
T3 construct: Endogenous protein probed with anti-p62 from BD Transduction Laboratories
Protocol: as §1, §2

ATP6V1A = target: T4, ATP6V1A (human, UniProt P38606 1-617); assay: as above
T4 construct: Endogenous protein probed in the co-immunoprecipitate
Protocol: as §1, §2

Measured: binding result

T2 sequence (Q6R327 whole entry): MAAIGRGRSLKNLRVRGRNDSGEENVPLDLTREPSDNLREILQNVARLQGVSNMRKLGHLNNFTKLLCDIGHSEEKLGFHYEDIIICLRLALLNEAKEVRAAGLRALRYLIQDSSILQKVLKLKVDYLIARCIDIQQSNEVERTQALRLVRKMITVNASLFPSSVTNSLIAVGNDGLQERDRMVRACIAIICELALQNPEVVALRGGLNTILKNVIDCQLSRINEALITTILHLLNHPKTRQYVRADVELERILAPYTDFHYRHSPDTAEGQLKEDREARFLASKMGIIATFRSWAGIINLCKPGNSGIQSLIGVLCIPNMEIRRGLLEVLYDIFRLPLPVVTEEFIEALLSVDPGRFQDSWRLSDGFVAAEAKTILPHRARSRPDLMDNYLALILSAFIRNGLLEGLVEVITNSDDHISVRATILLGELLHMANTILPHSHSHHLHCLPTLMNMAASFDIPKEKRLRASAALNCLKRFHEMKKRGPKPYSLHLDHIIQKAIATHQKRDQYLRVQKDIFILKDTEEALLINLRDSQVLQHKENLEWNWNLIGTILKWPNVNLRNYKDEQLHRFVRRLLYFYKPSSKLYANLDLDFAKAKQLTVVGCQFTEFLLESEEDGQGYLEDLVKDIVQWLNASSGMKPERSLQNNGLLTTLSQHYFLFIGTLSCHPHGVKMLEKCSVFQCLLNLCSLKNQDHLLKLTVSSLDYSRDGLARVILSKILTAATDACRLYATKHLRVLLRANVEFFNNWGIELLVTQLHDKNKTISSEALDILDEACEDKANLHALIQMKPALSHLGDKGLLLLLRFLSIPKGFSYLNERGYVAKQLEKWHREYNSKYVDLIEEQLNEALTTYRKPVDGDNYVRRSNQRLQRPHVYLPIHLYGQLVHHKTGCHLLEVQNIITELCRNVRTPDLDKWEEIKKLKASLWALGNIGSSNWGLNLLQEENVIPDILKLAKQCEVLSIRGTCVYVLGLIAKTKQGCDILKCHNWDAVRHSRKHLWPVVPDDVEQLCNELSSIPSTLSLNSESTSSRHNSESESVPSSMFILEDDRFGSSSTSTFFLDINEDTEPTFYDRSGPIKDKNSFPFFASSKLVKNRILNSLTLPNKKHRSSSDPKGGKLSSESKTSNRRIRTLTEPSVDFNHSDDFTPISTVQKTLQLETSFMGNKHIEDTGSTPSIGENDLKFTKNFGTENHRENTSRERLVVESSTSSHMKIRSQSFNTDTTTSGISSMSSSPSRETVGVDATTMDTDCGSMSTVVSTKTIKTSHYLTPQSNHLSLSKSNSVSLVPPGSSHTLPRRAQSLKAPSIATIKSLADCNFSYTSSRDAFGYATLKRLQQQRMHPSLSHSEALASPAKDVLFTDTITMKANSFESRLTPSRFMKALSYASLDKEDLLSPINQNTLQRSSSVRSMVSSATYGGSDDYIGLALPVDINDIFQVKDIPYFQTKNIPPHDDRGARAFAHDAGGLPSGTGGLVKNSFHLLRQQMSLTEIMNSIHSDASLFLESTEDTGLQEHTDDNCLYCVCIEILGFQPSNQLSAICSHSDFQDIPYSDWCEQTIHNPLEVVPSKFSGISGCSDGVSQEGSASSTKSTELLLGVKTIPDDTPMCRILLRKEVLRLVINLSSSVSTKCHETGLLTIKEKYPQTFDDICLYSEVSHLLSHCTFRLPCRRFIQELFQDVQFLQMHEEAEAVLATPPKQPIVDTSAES
T4 sequence (P38606 whole entry): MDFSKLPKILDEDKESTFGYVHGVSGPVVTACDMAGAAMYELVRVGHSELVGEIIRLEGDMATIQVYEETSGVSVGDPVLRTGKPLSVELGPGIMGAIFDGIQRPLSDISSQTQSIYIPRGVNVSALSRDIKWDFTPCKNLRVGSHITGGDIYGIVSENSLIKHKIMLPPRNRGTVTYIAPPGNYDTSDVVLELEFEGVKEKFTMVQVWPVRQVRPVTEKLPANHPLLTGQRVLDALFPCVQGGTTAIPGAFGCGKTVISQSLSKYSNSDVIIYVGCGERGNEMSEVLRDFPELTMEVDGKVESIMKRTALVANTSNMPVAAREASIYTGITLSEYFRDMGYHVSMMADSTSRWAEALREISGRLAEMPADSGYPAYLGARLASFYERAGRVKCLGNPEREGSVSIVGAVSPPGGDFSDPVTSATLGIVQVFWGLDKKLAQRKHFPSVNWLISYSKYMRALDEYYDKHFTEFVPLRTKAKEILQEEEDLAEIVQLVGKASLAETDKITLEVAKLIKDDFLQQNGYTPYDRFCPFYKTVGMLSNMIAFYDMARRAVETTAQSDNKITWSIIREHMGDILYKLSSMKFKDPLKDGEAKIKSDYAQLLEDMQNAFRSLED
T1 sequence (Q9P2J5 whole entry): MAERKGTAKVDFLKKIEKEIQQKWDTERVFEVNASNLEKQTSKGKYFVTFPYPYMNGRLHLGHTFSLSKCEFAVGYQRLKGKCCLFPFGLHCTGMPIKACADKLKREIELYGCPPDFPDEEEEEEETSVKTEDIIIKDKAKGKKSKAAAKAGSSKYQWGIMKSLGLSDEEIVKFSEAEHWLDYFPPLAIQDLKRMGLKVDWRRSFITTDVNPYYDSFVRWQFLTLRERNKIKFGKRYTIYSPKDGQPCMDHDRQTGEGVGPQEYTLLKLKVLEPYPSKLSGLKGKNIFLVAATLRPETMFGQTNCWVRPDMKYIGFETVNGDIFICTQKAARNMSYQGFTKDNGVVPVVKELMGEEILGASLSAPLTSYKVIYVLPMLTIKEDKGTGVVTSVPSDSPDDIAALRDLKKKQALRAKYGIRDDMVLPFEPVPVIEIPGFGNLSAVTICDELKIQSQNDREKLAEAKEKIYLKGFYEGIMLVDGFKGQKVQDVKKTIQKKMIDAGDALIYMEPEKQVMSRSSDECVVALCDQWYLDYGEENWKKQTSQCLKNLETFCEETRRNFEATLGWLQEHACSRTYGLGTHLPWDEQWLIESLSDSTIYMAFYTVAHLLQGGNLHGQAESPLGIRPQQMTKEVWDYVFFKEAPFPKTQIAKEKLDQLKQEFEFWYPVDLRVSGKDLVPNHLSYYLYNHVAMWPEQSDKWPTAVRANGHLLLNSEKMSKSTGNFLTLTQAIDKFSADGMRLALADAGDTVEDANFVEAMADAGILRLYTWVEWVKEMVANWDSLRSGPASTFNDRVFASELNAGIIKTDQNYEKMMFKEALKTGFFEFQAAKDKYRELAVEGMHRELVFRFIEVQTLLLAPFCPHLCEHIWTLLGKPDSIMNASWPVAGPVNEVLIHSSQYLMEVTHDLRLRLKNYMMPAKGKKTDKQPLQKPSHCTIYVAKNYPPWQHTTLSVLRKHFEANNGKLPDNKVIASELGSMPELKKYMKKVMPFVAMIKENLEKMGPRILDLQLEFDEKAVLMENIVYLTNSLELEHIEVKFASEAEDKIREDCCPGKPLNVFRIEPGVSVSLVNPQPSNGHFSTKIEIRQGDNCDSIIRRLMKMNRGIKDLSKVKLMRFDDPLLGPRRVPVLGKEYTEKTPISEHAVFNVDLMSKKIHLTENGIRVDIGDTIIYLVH

B1: MORTOR-3×FLAG (receptor)
chain: MRPERPRPRGSAPGPMETPPWDPARNDSLPPTLTPAVPPYVKLGLTVVYTVFYALLFVFIYVQLWLVLRYRHKRLSYQSVFLFLCLFWASLRTVLFSFYFKDFVAANSLSPFVFWLLYCFPVCLQFFTLTLMNLYFTQVIFKAKSKYSPELLKYRLPLYLASLFISLVFLLVNLTCAVLVKTGNWERKVIVSVRVAINDTLFVLCAVSLSICLYKISKMSLANIYLESKGSSVCQVTAIGVTVILLYTSRACYNLFILSFSQNKSVHSFDYDWYNVSDQADLKNQLGDAGYVLFGVVLFVWELLPTTLVVYFFRVRNPTKDLTNPGMVPSHGFSPRSYFFDNPRRYDSDDDLAWNIAPQGLQGGFAPDYYDWGQQTNSFLAQAGTLQDSTLDPDKPSLG
notes: Expressed from pBMN-GPR137b-3×FLAG in HEK293T or HeLa cells and immunoprecipitated from lysates on FLAG-M2 gel; also called GPR137b-3×FLAG; MORTOR-FLAG; not shown: 3×FLAG tag
no binding: all assays above
